Results as given in the supplement of paper PMC9112550, “Optimization of the antimicrobial peptide Bac7 by deep mutational scanning” (BMC Biology, 2022).

Test system: Escherichia coli TOP10
Assay: shrunken log2 fold change of peptide-encoding DNA abundance (4.5 h post-induction vs induction); higher = less antimicrobial activity (less host growth inhibition)
Conditions: time post-induction: 4.5 h; library: site-saturation at positions 5, 18, 19, 20
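Note: peptides expressed intracellularly from a pBAD plasmid library in pooled LB shake-flask culture, induced with 0.3% L-arabinose, DNA abundance read by NGS, three biological replicates, DESeq2 with apeglm shrinkage.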

Sequence	shrunken log2 fold change
RRIRSRPPRLPRPRPRPNAAPRP	0.675
RRIRSRPPRLPRPRPRPNAVPRP	-0.205
RRIRSRPPRLPRPRPRPNCHPRP	-0.316
RRIRSRPPRLPRPRPRPNCPPRP	-0.374
RRIRSRPPRLPRPRPRPNDEPRP	-0.276
RRIRSRPPRLPRPRPRPNDLPRP	-0.23
RRIRSRPPRLPRPRPRPNDYPRP	-1.18
RRIRSRPPRLPRPRPRPNEEPRP	0.0709
RRIRSRPPRLPRPRPRPNEGPRP	-0.0691
RRIRSRPPRLPRPRPRPNERPRP	-0.395
RRIRSRPPRLPRPRPRPNEYPRP	-1.02
RRIRSRPPRLPRPRPRPNFCPRP	0.0353
RRIRSRPPRLPRPRPRPNFLPRP	-0.304
RRIRSRPPRLPRPRPRPNGCPRP	-0.0491
RRIRSRPPRLPRPRPRPNHIPRP	-0.651
RRIRSRPPRLPRPRPRPNHYPRP	-0.789
RRIRSRPPRLPRPRPRPNILPRP	-0.61
RRIRSRPPRLPRPRPRPNKFPRP	-0.36
RRIRSRPPRLPRPRPRPNKKPRP	-0.194
RRIRSRPPRLPRPRPRPNLMPRP	-0.177
RRIRSRPPRLPRPRPRPNNYPRP	-0.597
RRIRSRPPRLPRPRPRPNPKPRP	0.0189
RRIRSRPPRLPRPRPRPNPTPRP	0.017
RRIRSRPPRLPRPRPRPNPVPRP	-0.0484
RRIRSRPPRLPRPRPRPNRKPRP	-0.596

Sequence	shrunken log2 fold change
RRIRSRPPRLPRPRPRPNSFPRP	-0.63
RRIRSRPPRLPRPRPRPNTDPRP	-0.442
RRIRSRPPRLPRPRPRPNTIPRP	-0.511
RRIRSRPPRLPRPRPRPNWRPRP	0.266
RRIRSRPPRLPRPRPRPNYSPRP	-0.401
RRIRSRPPRLPRPRPRPPAMPRP	0.344
RRIRSRPPRLPRPRPRPPAQPRP	0.922
RRIRSRPPRLPRPRPRPPCAPRP	0.497
RRIRSRPPRLPRPRPRPPCYPRP	-0.145
RRIRSRPPRLPRPRPRPPEMPRP	0.265
RRIRSRPPRLPRPRPRPPFCPRP	0.135
RRIRSRPPRLPRPRPRPPFKPRP	0.0589
RRIRSRPPRLPRPRPRPPFSPRP	-0.217
RRIRSRPPRLPRPRPRPPGNPRP	-0.0179
RRIRSRPPRLPRPRPRPPISPRP	-0.0261
RRIRSRPPRLPRPRPRPPIVPRP	-0.0118
RRIRSRPPRLPRPRPRPPKNPRP	0.223
RRIRSRPPRLPRPRPRPPNKPRP	-0.0165
RRIRSRPPRLPRPRPRPPNPPRP	0.273
RRIRSRPPRLPRPRPRPPPDPRP	0.848
RRIRSRPPRLPRPRPRPPPQPRP	0.835
RRIRSRPPRLPRPRPRPPRAPRP	0.567
RRIRSRPPRLPRPRPRPPRDPRP	1.34
RRIRSRPPRLPRPRPRPPRKPRP	0.73
RRIRSRPPRLPRPRPRPPRLPRP	0.322

Sequence	shrunken log2 fold change
RRIRSRPPRLPRPRPRPPRQPRP	0.389
RRIRSRPPRLPRPRPRPPVRPRP	0.337
RRIRSRPPRLPRPRPRPPYTPRP	-0.395
RRIRSRPPRLPRPRPRPPYYPRP	-0.174
RRIRSRPPRLPRPRPRPQCFPRP	-0.282
RRIRSRPPRLPRPRPRPQDHPRP	-0.794
RRIRSRPPRLPRPRPRPQEKPRP	-0.393
RRIRSRPPRLPRPRPRPQETPRP	0.0728
RRIRSRPPRLPRPRPRPQEVPRP	-0.0423
RRIRSRPPRLPRPRPRPQFAPRP	0.105
RRIRSRPPRLPRPRPRPQFQPRP	-0.124
RRIRSRPPRLPRPRPRPQHTPRP	-0.424
RRIRSRPPRLPRPRPRPQISPRP	-0.00331
RRIRSRPPRLPRPRPRPQKPPRP	-0.0986
RRIRSRPPRLPRPRPRPQLGPRP	0.115
RRIRSRPPRLPRPRPRPQLKPRP	0.0348
RRIRSRPPRLPRPRPRPQLSPRP	-0.106
RRIRSRPPRLPRPRPRPQNYPRP	-0.322
RRIRSRPPRLPRPRPRPQQSPRP	-0.235
RRIRSRPPRLPRPRPRPQRMPRP	-0.133
RRIRSRPPRLPRPRPRPQSLPRP	-0.232
RRIRSRPPRLPRPRPRPQVCPRP	-0.0852
RRIRSRPPRLPRPRPRPQVTPRP	-0.196
RRIRSRPPRLPRPRPRPQYEPRP	-0.355
RRIRSRPPRLPRPRPRPQYHPRP	-0.9

Sequence	shrunken log2 fold change
RRIRSRPPRLPRPRPRPQYIPRP	-0.206
RRIRSRPPRLPRPRPRPQYQPRP	-0.136
RRIRSRPPRLPRPRPRPRCEPRP	0.152
RRIRSRPPRLPRPRPRPRDGPRP	1.5
RRIRSRPPRLPRPRPRPRDRPRP	0.271
RRIRSRPPRLPRPRPRPRFFPRP	0.108
RRIRSRPPRLPRPRPRPRFNPRP	-0.153
RRIRSRPPRLPRPRPRPRGMPRP	0.164
RRIRSRPPRLPRPRPRPRGVPRP	0.749
RRIRSRPPRLPRPRPRPRHHPRP	-0.163
RRIRSRPPRLPRPRPRPRHIPRP	-0.264
RRIRSRPPRLPRPRPRPRHQPRP	-0.119
RRIRSRPPRLPRPRPRPRKTPRP	0.0973
RRIRSRPPRLPRPRPRPRKWPRP	0.139
RRIRSRPPRLPRPRPRPRLLPRP	0.229
RRIRSRPPRLPRPRPRPRLPPRP	0.315
RRIRSRPPRLPRPRPRPRMCPRP	-0.155
RRIRSRPPRLPRPRPRPRNWPRP	0.318
RRIRSRPPRLPRPRPRPRPWPRP	0.324
RRIRSRPPRLPRPRPRPRQKPRP	0.29
RRIRSRPPRLPRPRPRPRSHPRP	-0.203
RRIRSRPPRLPRPRPRPRSTPRP	0.0523
RRIRSRPPRLPRPRPRPRTNPRP	0.057
RRIRSRPPRLPRPRPRPRTQPRP	0.107
RRIRSRPPRLPRPRPRPRVFPRP	0.151

Sequence	shrunken log2 fold change
RRIRSRPPRLPRPRPRPRVLPRP	-0.285
RRIRSRPPRLPRPRPRPRWLPRP	0.297
RRIRSRPPRLPRPRPRPRYDPRP	-0.444
RRIRSRPPRLPRPRPRPRYFPRP	-0.0823
RRIRSRPPRLPRPRPRPSAWPRP	0.555
RRIRSRPPRLPRPRPRPSFLPRP	0.182
RRIRSRPPRLPRPRPRPSFNPRP	-0.644
RRIRSRPPRLPRPRPRPSFRPRP	-0.357
RRIRSRPPRLPRPRPRPSGEPRP	0.406
RRIRSRPPRLPRPRPRPSGNPRP	-0.571
RRIRSRPPRLPRPRPRPSGTPRP	-0.494
RRIRSRPPRLPRPRPRPSHKPRP	-0.658
RRIRSRPPRLPRPRPRPSHYPRP	-1.44
RRIRSRPPRLPRPRPRPSIWPRP	0.266
RRIRSRPPRLPRPRPRPSKVPRP	-0.575
RRIRSRPPRLPRPRPRPSLFPRP	0.0853
RRIRSRPPRLPRPRPRPSLTPRP	-0.138
RRIRSRPPRLPRPRPRPSMAPRP	0.223
RRIRSRPPRLPRPRPRPSMKPRP	-0.59
RRIRSRPPRLPRPRPRPSNCPRP	-0.525
RRIRSRPPRLPRPRPRPSNPPRP	-0.257
RRIRSRPPRLPRPRPRPSPNPRP	0.0503
RRIRSRPPRLPRPRPRPSPYPRP	-0.672
RRIRSRPPRLPRPRPRPSSAPRP	-0.0109
RRIRSRPPRLPRPRPRPSSDPRP	-0.107

Sequence	shrunken log2 fold change
RRIRSRPPRLPRPRPRPSTRPRP	-0.0999
RRIRSRPPRLPRPRPRPSVCPRP	0.0526
RRIRSRPPRLPRPRPRPSVVPRP	-0.219
RRIRSRPPRLPRPRPRPSYQPRP	-0.434
RRIRSRPPRLPRPRPRPTCVPRP	0.0671
RRIRSRPPRLPRPRPRPTCYPRP	-0.0144
RRIRSRPPRLPRPRPRPTDCPRP	-0.0926
RRIRSRPPRLPRPRPRPTDDPRP	-0.0687
RRIRSRPPRLPRPRPRPTDFPRP	-0.541
RRIRSRPPRLPRPRPRPTDWPRP	0.354
RRIRSRPPRLPRPRPRPTEEPRP	0.234
RRIRSRPPRLPRPRPRPTELPRP	-0.0967
RRIRSRPPRLPRPRPRPTETPRP	0.0721
RRIRSRPPRLPRPRPRPTGEPRP	0.0361
RRIRSRPPRLPRPRPRPTHWPRP	0.451
RRIRSRPPRLPRPRPRPTIRPRP	0.0218
RRIRSRPPRLPRPRPRPTIVPRP	0.148
RRIRSRPPRLPRPRPRPTKAPRP	0.266
RRIRSRPPRLPRPRPRPTKNPRP	0.168
RRIRSRPPRLPRPRPRPTKTPRP	-0.0829
RRIRSRPPRLPRPRPRPTKVPRP	-0.213
RRIRSRPPRLPRPRPRPTLEPRP	0.474
RRIRSRPPRLPRPRPRPTLMPRP	0.091
RRIRSRPPRLPRPRPRPTLQPRP	0.128
RRIRSRPPRLPRPRPRPTMDPRP	-0.262
